Our source for the self-aminoacylation values is the supplement of paper PMC9233669.

The test system of data set [1] is biotinyl-Phe-oxazolone. Put plainly: self-aminoacylation, catalytic enhancement (BFO) (fold over background); higher = more active; k-Seq, kA / k0A0; sequences stand for … in GGGAAUGGAUCCACAUCUACGAAUUC…UUCACUGCAGACUUGACGAAGCUG
An outline of the steps: (§1)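 Mutagenized RNA pools with a 21-nt variable region (0.43 μM) reacted with each biotinyl-aminoacyl-oxazolone at 2–1250 μM. Reactions ran in 50 μL HEPES/NaCl/KCl/MgCl2/CaCl2 buffer with 5% acetonitrile, pH 6.9–7.0, for 90 minutes at room temperature. Streptavidin-captured RNA was quantified by triplicate qPCR and Illumina sequencing, and per-sequence fraction reacted was fit to a pseudo-first-order model with 1000 bootstraps. Catalytic enhancement is median kA divided by the uncatalyzed rate, the low-activity peak of a bimodal Gaussian fit.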

Data set [2] relates to biotinyl-Ile-oxazolone. Put plainly: self-aminoacylation, catalytic enhancement (BIO) (fold over background); higher = more active; k-Seq, kA / k0A0; sequences stand for … in GGGAAUGGAUCCACAUCUACGAAUUC…UUCACUGCAGACUUGACGAAGCUG
The procedure, abridged: as §1

For data set [3], the system named is biotinyl-Met-oxazolone. Put plainly: self-aminoacylation, catalytic enhancement (BMO) (fold over background); higher = more active; k-Seq, kA / k0A0; sequences stand for … in GGGAAUGGAUCCACAUCUACGAAUUC…UUCACUGCAGACUUGACGAAGCUG
The procedure, abridged: as §1

The test system of data set [4] is biotinyl-Val-oxazolone. Put plainly: self-aminoacylation, catalytic enhancement (BVO) (fold over background); higher = more active; k-Seq, kA / k0A0; sequences stand for … in GGGAAUGGAUCCACAUCUACGAAUUC…UUCACUGCAGACUUGACGAAGCUG
The procedure, abridged: as §1

The test system of data set [5] is biotinyl-Leu-oxazolone. Put plainly: self-aminoacylation, catalytic enhancement (BLO) (fold over background); higher = more active; k-Seq, kA / k0A0; sequences stand for … in GGGAAUGGAUCCACAUCUACGAAUUC…UUCACUGCAGACUUGACGAAGCUG
The procedure, abridged:
as §1

Data set [6] has as its system biotinyl-Trp-oxazolone. Put plainly: self-aminoacylation, catalytic enhancement (BWO) (fold over background); higher = more active; k-Seq, kA / k0A0; sequences stand for … in GGGAAUGGAUCCACAUCUACGAAUUC…UUCACUGCAGACUUGACGAAGCUG
An outline of the steps:
as §1

Fewer inactive variants are shown than the library holds.

For the sequence “CCACACUUCACGCAGUCGGUC [Fam1B.1 aminoacylation ribozyme variant]”, the self-aminoacylation in data set [1] was found to be 0.859; in data set [2] it was 1.13; in data set [3], 0.94; in data set [4] it was 1.47; in data set [5], 1.31; in data set [6], 0.719.

With “AUUACCCGGGUCAUAGAGUGA [Fam2.1 aminoacylation ribozyme variant]”, the self-aminoacylation is 71.4 in data set [1]; 4.55 in data set [2]; 9.33 in data set [3]; 4.45 in data set [4]; 9.4 in data set [5]; 10.4 in data set [6].

In the case of “AUUCACCUAGGUCAUCCGGGG [Fam2.2 aminoacylation ribozyme variant]”, the self-aminoacylation was found to be 7.28 in data set [1]; 3.2 in data set [2]; 3.21 in data set [3]; 2.84 in data set [4]; 4.27 in data set [5]; 3.23 in data set [6].

For “CCUCACUUCAAGCGAUCGGUC [Fam1B.1 aminoacylation ribozyme variant]”, the self-aminoacylation stood at 2.38 in data set [1]; 1.19 in data set [2]; 1.27 in data set [3]; 1.29 in data set [4]; 1.53 in data set [5]; 2.72 in data set [6].

As for “ACACAAUUCAAGCAAUCGGUC [Fam1B.1 aminoacylation ribozyme variant]”, the self-aminoacylation in data set [1] came to 1.95; in data set [2] it was 1.44; in data set [3], 1.21; in data set [4], 1.18; in data set [5], 1.21; in data set [6] it was 1.67.

For the sequence “AUUCACCUUGGUCAUCGGGUU [Fam2.2 aminoacylation ribozyme variant]”, the self-aminoacylation stood at 8.05 in data set [1]; 1.67 in data set [2]; 1.84 in data set [3]; 2.08 in data set [4]; 2.38 in data set [5]; 2.14 in data set [6].

Take “AUUCACCUAGGUCAUCGGGGU [Fam2.2 aminoacylation ribozyme variant]”: the self-aminoacylation came to 40.5 in data set [1]; 5.09 in data set [2]; 7.67 in data set [3]; 5.09 in data set [4]; 12.2 in data set [5]; 7.01 in data set [6].

Regarding “CGACACUUCAAGCAAUCAGUC [Fam1B.1 aminoacylation ribozyme variant]”, the self-aminoacylation in data set [1] turned out to be 13.2; in data set [2], 0.815; in data set [3], 0.774; in data set [4] it was 0.822; in data set [5], 0.903; in data set [6], 4.25.

Take “UUUACACUGGUCAUCGAGUGA [Fam2.1 aminoacylation ribozyme variant]”: the self-aminoacylation in data set [1] was found to be 23.9; in data set [2] it was 3.29; in data set [3], 5.97; in data set [4], 3; in data set [5] it was 5.04; in data set [6], 7.26.

On to “CCACACUUCAUGCUAUCGGUC [Fam1B.1 aminoacylation ribozyme variant]”, for which the self-aminoacylation turned out to be 0.838 in data set [1]; 0.834 in data set [2]; 0.626 in data set [3]; 0.931 in data set [4]; 0.69 in data set [5]; 0.714 in data set [6].

As for “CUCCUUCACACAAUCGGUCUG [Fam1A.1 aminoacylation ribozyme variant]”, the self-aminoacylation in data set [1] turned out to be 1.55; in data set [2], 0.907; in data set [3] it was 0.799; in data set [4] it was 0.985; in data set [5], 0.686; in data set [6], 0.895.

“UAGUUUGCUAAUGGUCGCAAG [Fam3.1 aminoacylation ribozyme variant]”: the self-aminoacylation turned out to be 1.19 in data set [1]; 1.11 in data set [2]; 1.17 in data set [3]; 1.1 in data set [4]; 0.81 in data set [5]; 1.22 in data set [6].

Consider “CUACUUCAAACAAACGGUCAG [Fam1A.1 aminoacylation ribozyme variant]”, for which the self-aminoacylation in data set [1] turned out to be 0.883; in data set [2], 0.73; in data set [3] it was 0.6; in data set [4] it was 0.682; in data set [5] it was 0.581; in data set [6], 0.787.

On to “AUUCACCUAGGUCAUCGAGAG [Fam2.2 aminoacylation ribozyme variant]”, for which the self-aminoacylation in data set [1] is 1.13; in data set [2], 0.915; in data set [3] it was 1.07; in data set [4], 0.848; in data set [5] it was 1.47; in data set [6], 0.394.

With “CAACACUUCAAGCAAUCGGUC [Fam1B.1 aminoacylation ribozyme variant]”, the self-aminoacylation in data set [1] worked out at 43.1; in data set [2] it was 1.13; in data set [3] it was 1.11; in data set [4], 1.27; in data set [5], 1.55; in data set [6], 20.1.

Consider “AUUCACCUAGGUUAUCGGGUG [Fam2.2 aminoacylation ribozyme variant]”, for which the self-aminoacylation in data set [1] is 28; in data set [2], 2.89; in data set [3] it was 4.34; in data set [4], 3.15; in data set [5], 5.2; in data set [6] it was 4.33.

On to “CCACACUUCAGGCAUUCGGUC [Fam1B.1 aminoacylation ribozyme variant]”, for which the self-aminoacylation amounted to 1.09 in data set [1]; 2.2 in data set [2]; 1.88 in data set [3]; 2.48 in data set [4]; 2.2 in data set [5]; 2.27 in data set [6].

On to “AAGUUUGCUAAGAGGCGCAAG [Fam3.1 aminoacylation ribozyme variant]”, for which the self-aminoacylation in data set [1] is 1.21; in data set [2] it was 0.727; in data set [3], 0.759; in data set [4], 0.656; in data set [5] it was 0.547; in data set [6] it was 0.895.

“GAGUUUGCUAAUAGUCGCAAC [Fam3.1 aminoacylation ribozyme variant]”: the self-aminoacylation stood at 1.19 in data set [1]; 1.4 in data set [2]; 1.31 in data set [3]; 1.19 in data set [4]; 0.998 in data set [5]; 1.2 in data set [6].

For “AUUGACCUAGGCCAUCGGGUG [Fam2.2 aminoacylation ribozyme variant]”, the self-aminoacylation in data set [1] turned out to be 39.3; in data set [2], 3.65; in data set [3], 4.78; in data set [4], 4.27; in data set [5], 5.7; in data set [6], 6.22.

Regarding “AUCAGCCUGGUCAUCGAGUGA [Fam2.1 aminoacylation ribozyme variant]”, the self-aminoacylation stood at 32.5 in data set [1]; 3.99 in data set [2]; 4.28 in data set [3]; 3.49 in data set [4]; 4.62 in data set [5]; 6.36 in data set [6].

On to “CCACACUUCAAGCAAUAGCUC [Fam1B.1 aminoacylation ribozyme variant]”, for which the self-aminoacylation in data set [1] stood at 0.859; in data set [2] it was 0.691; in data set [3] it was 0.708; in data set [4], 0.816; in data set [5] it was 0.941; in data set [6], 0.427.

As for “AUUACCCCGGUGAUCGAGUGA [Fam2.1 aminoacylation ribozyme variant]”, the self-aminoacylation in data set [1] turned out to be 21.5; in data set [2], 2.23; in data set [3], 3.73; in data set [4], 2.23; in data set [5], 3.33; in data set [6] it was 4.35.
